According to the DeepSol protein solubility set:

Assay: soluble on expression in E. coli; label from the status in PepcDB or PDB records

Sequence	soluble on expression in E. coli
MGSDKIHHHHHHGREEKTVYDFPLEQSLKSDKEVSLNKELLAPYLMCSYDSTLCLIDWTANPMVHVYNMNTGKEMVAFGNKGMGPDDFLSISQMYVDMGKRSLLLYDQSLQTISSFQIDSLAQGSLSKIDCVSAPKLGMNRVYAYSDSIFYGSGTFESGLIAKCNQKEILNQYLPFPHTEQAVNRDVNYLLFQGDLIMKPDKKRFAYLAYECDLLSIQKVVNDTCLESVVHLNTYTPVFENQSTNEVSSVNVSTDSPKGFLRGVATENYVYALYSGQIGKNKAIANEVYVFDWEGRAVKKVILDRWGICISVDSNDERLCLMTKETDGGEERYHYYCYQLN	not soluble
MDFYDTDELRDFMALVEKTNDIKKIALFRILAFTGIRKGELLALEWKDYRKSTLDINKAISHSPVGYEILPPKANSNRLLSLDEKTCKILDELHQTYPESTRIFESENGGMLSPSKPRKWLLEITKEKEIEPIRIHAFRHTHASLLFESGMSLKQVQYRLGHADLKTTMNIYTHITKLEHHHHHH	not soluble
SLEYNLTTKEVEMVNVTASWDEGIGELFEKVKQNDSERKMANGDDGLFFSNFSLHVTPVLKNISFKLEKGELLAIAGSTGSGKSSLLMMIMGELEPSDGKIKHSGRISYSPQVPWIMPGTIKDNIIFGLSYDEYRYTSVVNACQLEEDITVFPNKDKTVLGDGGITLSGGQRARISLARALYKDADLYLLDSPFSHLDVTTEKDIFESCLCKLMVNKTRILVTSKLEHLKKADKILLLHEGHCYFYGTFSELQGEKPDFSSQLLGSVHFDSFSAERRNSILTETFRRCSVSSGDGAGLGSEG	soluble
EIINEEGKLERKADMFTRRTIQTHRAVTSVDTAVEALAVSIGEKACVDLGYMASLMGGPEKIPQIVEDLKGIIFKNPATGPFDLEDGGAHWHQGWQTADEYLSGNVRAKLAIARAAAEENPQFAINAEKLEQVQPKDLTASEISVRIGASWIDPEYYQQFMFELLHTPVYLQDRKIKLQYSPTTGEWNVQGKSTDNRDNVRVYATYGTKRINAYEIFEQTLNQRDVRIFDKTEVDGKEVRVLNEKQTAIAQQKQEAMCETFKDWIFKDPERRETLCRRYNEKFNCIRPREYDGSHIRFAGMNPEISLRTHQ	not soluble
TIPKWWKEAVFYQVYPRSFKDTNGDGIGDINGIIEKLDYLKALGIDAIWINPHYDSPNTDNGYDIRDYRKIMKEYGTMEDFDRLISEMKKRNMRLMIDVVINHTSDQNEWFVKSKSSKDNPYRGYYFWKDAKEGQAPNNYPSFFGGSAWQKDEKTNQYYLHYFAKQQPDLNWDNPKVRQDLYAMLRFWLDKGVSGLRFDTVATYSKIPDFPNLTQQQLKNFAAEYTKGPNIHRYVNEMNKEVLSHYDIATAGEIFGVPLDQSIKFFDRRRDELNIAFTFDLIRLDRDSDQRWRRKDWKLSQFRQIIDNVDRTAGEYGWNAFFLDNHDNPRAVSHFGDDRPQWREPSAKALATLTLTQRATPFIYQGSELGMTNYPFKAIDEFDDIEVKGFWHDYVETGKVKADEFLQNVRLTSRDNSRTPFQWDGSKNAGFTSGKPWFKVNPNYQEINAVSQVTQPDSVFNYYRQLIKIRHDIPALTYGTYTDLDPANDSVYAYTRSLGAEKYLVVVNFKEQMMRYKLPDNLSIEKVIIDSNSKNVVKKNDSLLELKPWQSGVYKLNQ	soluble
MAHHHHHHMSQLYRGRSYQNILRKLPRNLVVFDGHCLMCQARVRHVLERNFSYFSFIRIMQGVDPVKLEANKMLFCSFDSVEWREVRRNFPHLLNDADGVVLIEKVPSKTASFLSRVRQGQKQRRQQGRTGGMNSSEEKRGLKNFFQTNNFSFPLASSSVTTPRGLAGGFDGVEEDVDIVVSVKYEAVCRIGMKLDRWLLRTLFRCLYYMLPRWMGDRWYDYILRRRQLWGTSEEDAVRYPKRVPGLKERTWKL	not soluble
MAHHHHHHMPRVQLFIDNGGYSVKALYLPASADTSNRSAATHASALTSSSTHGEAAATAATVAPAPKVLVVPNCVGAAVYAGTGIMGDQLDHLPHYHGLMVRRPVDRGFVVDGGLQARVWEHVLQHFSIESEEEVDVWLVVPFAAPKAVAQLLWLLCTRSFRFGSVTVVSSSFMSLIAYKFARGASAPSSAARKRPRSTVDTDAQESPGCSGSSATGGGMAIMVDVGFSATTVVPYVNYIPVYSSVVRLDVGGKVLTNRLKEYISFSQMNVIEDTWLINHVKEQCCVVARHPRRSLQRYAALWKGRTRDEVEAAAGALSTLRREDGGSGDGQASRSQRPGAPVAGVLTSPDVPIRYYLPTIPALLPLGVLEAELPSRLPKTSGVDAAALQHLLLCQERFLIPELLFTPADVGINQQGVAQAITEGIFQRGLLQHLTKLLRPLLLHNVCVYGGTASQPNFRDRLEAEVAAVAPQSPDCDADLDLKDSKRSSSSSRHGATEACADRTTCLSATPALPEFLLKAGGASTDLSLQPLLGAWCLLSATVDSGSNGGASQRELLRLRALVHERSGIELQHPPAGRVTVETFQHALERML	not soluble
TVKSFVMRAGRMTEGQQRGLDLGWPKFGLELSDEVQDFDAIFGRQAPRTFEIGFGMGHSTLEMAAAAPDIDFIGVEVHKPGVGALLNGLLTQGLGNVRVYSCDALEVLRHCVADASLDRLLLFFPDPWHKKRHHKRRIVQPEFAELVRRKLKVGGVLHMATDWEPYAEHMLDVMSAAPGYRNQAEDGRFVPRPQERPVTKFERRGERLGHGVWDLKFER	not soluble
MAHHHHHHMADSYENDEDVLQMIQQIKKITKESKRKFENEIDYLVEDTKTNLLTHVDDEKNCIKKEAEEKLNSYRENLIKYEKGINEKRRHYLKLKAELATVVNNYKKRMKVGPACTCVERFTCACGEVYTRVEVYTLVKLHTLVKPPTRLLSPQDFNQETENFKQTYEREKKELEDLEDREWSELNTHCVELLSKTKSNICATKNETNKKLRKVLNSIM	not soluble
MQSNTPQPNPAPFLKAGETVVLFDGVCKLCNGWAKFIIRHDRRQRIRLATVQSPEGQALLEWAGLPLDRFDTMAAVTGDRLYVRSEAFFVALSDFPAPWRWLRVLRFFPAVIRDWLYDRIALNRYRLFGRYDSCLLPTPDHERRFLKASPLEHHHHHH	soluble
MTDKPTYEQTLRGNAIRAISACDLDEKVRLARETASRWFARALSVRSPLDPPLPERPGRPEKPELVPPRMLKKRSLNTEHGRIALMHALAHIELNAIDLALDIVARFAVKPIPRSFFDGWMKVADDEARHFTLLRNRLKSLGADYGDMPAHDGLWQSAHQTRNDLEARLAVVPLILEARGLDVTPSLLEKMIETGDHETAAILNIIYNDEKTHVAVGAKWFRFFCARNRIDPAARFRELVRANFRGELKPPFNELARAEAGLTPSFYRSLSPVSILEHHHHHH	not soluble
MGSSHHHHHHSSGRENLYFQGHMSNTYQKRKASKEYGLYNQCKKLNDDELFRLLDDHNSLKRISSARVLQLRGGQDAVRLAIEFCSDKNYIRRDIGAFILGQIKICKKCEDNVFNILNNMALNDKSACVRATAIESTAQRCKKNPIYSPKIVEQSQITAFDKSTNVRRATAFAISVINDKATIPLLINLLKDPNGDVRNWAAFAININKYDNSDIRDCFVEMLQDKNEEVRIEAIIGLSYRKDKRVLSVLCDELKKNTVYDDIIEAAGELGDKTLLPVLDTMLYKFDDNEIITSAIDKLKRS	soluble
MRVLLIEKNSVLGGEIEKGLNVKGFMADVTESLEDGEYLMDIRNYDLVMVSDKNALSFVSRIKEKHSSIVVLVSSDNPTSEEEVHAFEQGADDYIAKPYRSIKALVARIEARLRFWGSNVIEIGDLTISPDEEKIIYKGREVEVKGKPFEVLTHLARHRDQIVSKEQLLDAIWEEPEMVTPNVIEVAINQIRQKMDKPLGISTVETVRRRGYRFCYPKPACEE	soluble
MGSDKIHHHHHHMQFGNHPYYANELMLSLDEASGMVGEDARVAEFIRPLYGSRESISGTPRTCLWITDENLALAQEIPAVWARVEKVRKDRKTKTKDVQAKKLVETPWRFRDQYEAESSLLVVPIVSSENRPYLPVVLLSKEAIVHNKAFALYDAPLWNFALIVSKMHLVWVAAVCVRLEMRYSYSNTLGWNTFPVPTLTEQNKADLTRCAEDILLARESHYPATIADLYGPDNMPDDLLRAHERNDEVLERIYIGRRFRNDTERLEKLFDLYTKMTAGQGKPKKKAKK	not soluble
STLKGALSVKFDVKCPADKFFSAFVEDTNRPFEKNGKTEIEAVDLVKKTMTIQMSGSEIQKYFKTLKGSIAVTPIGVGDGSHVVWTFHFEKVHKDIDDPHSIIDESVKYFKKLDEAILNFKE	soluble
MMRWIRHMFAPSAHRSFPPRSMDSIAAAIAASEQLHTGQVMVAVEADLSAAALWRGHGARQRAEQAFAQLRTWDTEANNGVLIYLLLADHAIEVVADRGLRALVPDAAWAEVCRRMQQFLRDGQHEAAVLAGVEAVTELLCAHFPAAAQAQHEDELPNRPHILGLEHHHHHH	soluble
MSEAAIAKKETLVQAAAEKFESAASVVIVDYRGLTVEEVTNLRKQLRDAGVEMKVIKNSILSRAAKKVGLDGLDEVFTGPTAVAFSNDDVVAPAKIIDEFAKDAKALEIKGGVIEGKVSSVEQITALAKLPNREGLLSMLLSVLQAPVRNVAYAVKAVAEKNEEVA	not soluble
MYIELRTSLEMFRSDLVDLEALANASRDALDQLPFVPKGPKMDDDEAHPNPDPESALRSGRLDSLVCATASAAQSALVTCVKLIDWAYEYEPDDEDDDDNDIVPMDDIDDDDEGGGSSGANGGGSNGSGRSGPPDNGDASAAPSVTADELANARPSRGGIALDLPPKPAPVA	not soluble
MQEKQLKTIQNKIASWIKEIESAFIDELFSKIGPSKMLRSKLMLALLNEKTDAILLDKAFNLCAIVEMIQTASLLHDDVIDKAAMRRKLPSINALFGNFNAVMLGDVFYSKAFFELSKMGESIAKSLSNAVLRLSRGEIEDVFVGGSFNSDKQKYWRILEDKTAHFIEASLKSMAILLNKDAKMYADFGLNFGMAFQIIDDLLDITQDAKTLGKPNFSDFKEGKTTLPYLLLYEKLNQRDQGLLISYFKQDSHEIIEWTKEKFKQYGTIEETLKIAQVYSKKALEAIKGENNLILEKLAQDVIYRTF	not soluble
PKLVCLVSSSNSFATFLAEEIPIISNKGIGVKGIKLKAEEKVRFAMPLQD	not soluble
MGKVLVIYDTRTGNTKKMAELVAEGARSLEGTEVRLKHVDEATKEDVLWADGLAVGSPTNMGLVSWKMKRFFDDVLGDLWGEIDGKIACAFSSSGGWGGGNEVACMSILTMLMNFGFLVFGVTDYVGKKFTLHYGAVVAGEPRSEEEKEACRRLGRRLAEWVAIFVDGRKELLEKIRKDPARFVD	soluble
MGSDKIHHHHHHMAGCDDSFDIIVVGAGPVGLSFAASLAYSQLKLAVVEGQALERLASPAFDGREIALTHASIGILRELGAWDVISASDKSPLQGARVLNGSSPFALCFDSPGGSAEPLGVLVPNCQIRDALFKIIRLRGHARLLCGHSVVRATNSRQGAVITLSNGRQLSARLLVAADSRFSATRNLLGIGADINRLGNSMLICRVRHERPHHQIAIEWFDHHQTVAMLPLAPGVSSLLLTLPSNEADGLLALDDELFLRELTKRCRGRLGTMSLASQRYIYPLATTWAHRFRAPSFALIGDAAIGMHPVTAHGFNIGLGGQKQLARGIETAWRDRRDIADPDMLHRYESRLRLSAAPLYHATNILVGLYSSEHPAARLARHVGLRLGQHLPFVRHGIAAMLRR	not soluble
GPGSMSSFAPNVKICEDISHISSAARDIILAAIDARVDKSAPVVLALSGGSTPKRLYEELHEKDLTLLQQHAVQFILGDERLVATDDEQSNFSMATKALLRDVPISDVIAIEPSAALATSKDEKGGVDGAWAVAQDYEKKLRNRLPCTQVNGTDMSVPIVDIVLLGFGADGHTASIFPDSVAATDESHVVSVSFPSPTMNPKVWRVTLSKTVIQHAKHVVVLACGKDKNWVVHGVLAEAPTGPLPVSRFLRECRGSVTMLLDAGSGEGLSA	soluble
